The text below walks through data of US20230227833.

This data set has as its system Reverse transcriptase (RT). In words: inhibition. The conditions noted are these: RNA strand 3' phosphate; DNA strand 3' dideoxy; 37 C; activity fully released at 55 C.

For the sequence “TCGAACGGGACGGCTGGCTGTGTGTGT / CCAGCCGTCC [analogs 6+7 (RNA/DNA)]”, the activity (% residual activity) came out at 16.
